Measured values published in US20220204580A1 (AstraZeneca / MedImmune, published 2022).
Numbered stars: 1 amine (or outer) side, 2 acyl side, 3 side chain; on linkers, the order of the positions; unused ones are H or OH. Bridge positions count the residues as written; N and C are the ends. Square brackets hold non-standard residues; d marks the D form. Side chains are listed from the residue outwards. Ends that are not written are not given here. * marks the point of attachment. C18 diacid = O=C(O)CCCCCCCCCCCCCCCCC(=O)*; γGlu = O=C(O)[C@H](CCC(=O)[*:2])N[*:1]; Aib = CC(C)(N)C(=O)O

T1: rat amylin receptor (calcitonin receptor co-expressed with receptor activity modifying protein, RAMP3) (rat, UniProt P32214 25-516; Q9JJ73 23-147)
T1 sequence (looked up) 1: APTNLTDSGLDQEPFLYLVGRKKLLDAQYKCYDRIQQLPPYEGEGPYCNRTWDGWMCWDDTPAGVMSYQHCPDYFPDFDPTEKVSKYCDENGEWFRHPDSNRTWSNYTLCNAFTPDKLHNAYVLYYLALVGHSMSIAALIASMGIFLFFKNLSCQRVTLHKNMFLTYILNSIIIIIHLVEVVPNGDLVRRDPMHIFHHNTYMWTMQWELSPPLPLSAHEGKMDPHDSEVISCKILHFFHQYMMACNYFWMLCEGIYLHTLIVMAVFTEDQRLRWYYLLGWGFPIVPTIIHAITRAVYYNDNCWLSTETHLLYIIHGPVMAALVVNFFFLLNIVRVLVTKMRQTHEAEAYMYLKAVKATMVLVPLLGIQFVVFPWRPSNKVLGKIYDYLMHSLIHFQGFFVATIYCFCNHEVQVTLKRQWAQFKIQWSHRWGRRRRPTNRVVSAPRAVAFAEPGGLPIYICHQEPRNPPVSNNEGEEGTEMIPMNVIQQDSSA
T1 sequence (looked up) 2: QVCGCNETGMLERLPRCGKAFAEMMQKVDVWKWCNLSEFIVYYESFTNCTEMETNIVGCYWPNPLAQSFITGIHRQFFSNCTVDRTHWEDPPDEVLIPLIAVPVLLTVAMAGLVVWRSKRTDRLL

T2: rat calcitonin receptor (rat, UniProt P32214 25-516)
T2 sequence (looked up): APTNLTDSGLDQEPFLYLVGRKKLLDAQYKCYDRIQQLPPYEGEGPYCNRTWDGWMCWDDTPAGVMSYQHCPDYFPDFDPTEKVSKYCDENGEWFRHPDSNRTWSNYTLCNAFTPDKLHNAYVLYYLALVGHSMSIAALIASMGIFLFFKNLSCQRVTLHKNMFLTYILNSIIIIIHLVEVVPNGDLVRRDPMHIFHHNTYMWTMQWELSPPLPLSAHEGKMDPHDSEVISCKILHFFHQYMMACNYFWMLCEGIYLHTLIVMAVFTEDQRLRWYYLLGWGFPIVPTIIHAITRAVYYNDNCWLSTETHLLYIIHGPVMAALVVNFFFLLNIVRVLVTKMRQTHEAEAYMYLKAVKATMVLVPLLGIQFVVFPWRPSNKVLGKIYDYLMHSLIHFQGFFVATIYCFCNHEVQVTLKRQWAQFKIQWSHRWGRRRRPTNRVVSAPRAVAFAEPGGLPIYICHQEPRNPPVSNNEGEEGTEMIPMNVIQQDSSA

T3: human calcitonin receptor (human, UniProt P30988 25-474)
T3 sequence (looked up): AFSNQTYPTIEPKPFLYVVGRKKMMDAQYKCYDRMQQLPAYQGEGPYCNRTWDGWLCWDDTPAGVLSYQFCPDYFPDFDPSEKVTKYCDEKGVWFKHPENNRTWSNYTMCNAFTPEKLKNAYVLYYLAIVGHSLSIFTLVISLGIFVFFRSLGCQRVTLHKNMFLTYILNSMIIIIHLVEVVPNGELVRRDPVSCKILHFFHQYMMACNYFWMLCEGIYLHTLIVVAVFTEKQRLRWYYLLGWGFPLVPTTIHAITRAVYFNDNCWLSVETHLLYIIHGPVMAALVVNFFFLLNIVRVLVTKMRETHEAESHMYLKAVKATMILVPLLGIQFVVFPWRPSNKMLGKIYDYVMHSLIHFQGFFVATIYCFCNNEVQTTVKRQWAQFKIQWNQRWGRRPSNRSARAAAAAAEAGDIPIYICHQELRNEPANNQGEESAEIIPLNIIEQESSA

T4: human amylin receptor (calcitonin receptor co-expressed with receptor activity modifying protein, RAMP3) (human, UniProt P30988 25-474; O60896 24-148)
T4 sequence (looked up) 1: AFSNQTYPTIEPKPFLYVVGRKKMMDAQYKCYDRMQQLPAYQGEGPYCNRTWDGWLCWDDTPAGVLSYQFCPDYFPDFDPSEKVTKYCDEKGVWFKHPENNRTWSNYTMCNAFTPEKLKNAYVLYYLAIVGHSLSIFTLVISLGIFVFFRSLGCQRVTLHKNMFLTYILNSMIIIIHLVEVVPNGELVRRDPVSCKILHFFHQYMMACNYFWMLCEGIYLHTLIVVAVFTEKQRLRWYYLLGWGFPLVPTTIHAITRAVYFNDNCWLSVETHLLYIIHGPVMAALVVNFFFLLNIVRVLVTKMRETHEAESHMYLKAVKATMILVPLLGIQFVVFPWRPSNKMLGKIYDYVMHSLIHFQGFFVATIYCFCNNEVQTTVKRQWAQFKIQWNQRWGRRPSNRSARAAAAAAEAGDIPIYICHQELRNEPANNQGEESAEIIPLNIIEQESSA
T4 sequence (looked up) 2: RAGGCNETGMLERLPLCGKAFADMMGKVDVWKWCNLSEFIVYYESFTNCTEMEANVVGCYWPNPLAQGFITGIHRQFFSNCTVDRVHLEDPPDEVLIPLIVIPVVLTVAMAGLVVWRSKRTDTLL


Assays:
Test in all cases: cell-based or functional assay
[1] = molecular target: T1, rat amylin receptor (calcitonin …)
rat calcitonin receptor = molecular target: T2, rat calcitonin receptor
[2] = molecular target: T3, human calcitonin receptor
[3] = molecular target: T4, human amylin receptor (calcitonin …)

| EC50 (cAMP production) [1] [nM] | EC50 (cAMP production) (rat calcitonin receptor) [nM] | EC50 (cAMP production) [2] [nM] | EC50 (cAMP production) [3] [nM] | Ratio (EC50 hCTR / EC50 hAMYR3) [3] | Binder |
| --- | --- | --- | --- | --- | --- |
| 0.0185 | 2.24 | 6.26 | 0.284 | 22 | K([γGlu-C18 diacid])CNTATCATQRLANFLRHSS[Aib]NFGPILPPTEVGSNTY-NH2 (disulfide 2-7; N-terminus assumed; SMILES CC[C@H](C)[C@H](NC(=O)[C@@H]1CCCN1C(=O)CNC(=O)[C@H](Cc1ccccc1)NC(=O)[C@H](CC(N)=O)NC(=O)C(C)(C)NC(=O)[C@H](CO)NC(=O)[C@H](CO)NC(=O)[C@H](Cc1c[nH]cn1)NC(=O)[C@H](CCCNC(=N)N)NC(=O)[C@H](CC(C)C)NC(=O)[C@H](Cc1ccccc1)NC(=O)[C@H](CC(N)=O)NC(=O)[C@H](C)NC(=O)[C@H](CC(C)C)NC(=O)[C@H](CCCNC(=N)N)NC(=O)[C@H](CCC(N)=O)NC(=O)[C@@H](NC(=O)[C@H](C)NC(=O)[C@@H]1CSSC[C@H](NC(=O)[C@@H](N)CCCCNC(=O)CC[C@H](NC(=O)CCCCCCCCCCCCCCCCC(=O)O)C(=O)O)C(=O)N[C@@H](CC(N)=O)C(=O)N[C@@H]([C@@H](C)O)C(=O)N[C@@H](C)C(=O)N[C@@H]([C@@H](C)O)C(=O)N1)[C@@H](C)O)C(=O)N[C@@H](CC(C)C)C(=O)N1CCC[C@H]1C(=O)N1CCC[C@H]1C(=O)N[C@H](C(=O)N[C@@H](CCC(=O)O)C(=O)N[C@H](C(=O)NCC(=O)N[C@@H](CO)C(=O)N[C@@H](CC(N)=O)C(=O)N[C@H](C(=O)N[C@@H](Cc1ccc(O)cc1)C(N)=O)[C@@H](C)O)C(C)C)[C@@H](C)O) [Peptide 44 (SEQ ID NO: 44)] |
| 0.0145 | 3.65 | 19 | 0.647 | 29 | K([γGlu-C18 diacid])KCNTATCATQRLANFLRHSS[Aib]NFGPILPPTEVGSNTY-NH2 (disulfide 3-8; N-terminus assumed; SMILES CC[C@H](C)[C@H](NC(=O)[C@@H]1CCCN1C(=O)CNC(=O)[C@H](Cc1ccccc1)NC(=O)[C@H](CC(N)=O)NC(=O)C(C)(C)NC(=O)[C@H](CO)NC(=O)[C@H](CO)NC(=O)[C@H](Cc1c[nH]cn1)NC(=O)[C@H](CCCNC(=N)N)NC(=O)[C@H](CC(C)C)NC(=O)[C@H](Cc1ccccc1)NC(=O)[C@H](CC(N)=O)NC(=O)[C@H](C)NC(=O)[C@H](CC(C)C)NC(=O)[C@H](CCCNC(=N)N)NC(=O)[C@H](CCC(N)=O)NC(=O)[C@@H](NC(=O)[C@H](C)NC(=O)[C@@H]1CSSC[C@H](NC(=O)[C@H](CCCCN)NC(=O)[C@@H](N)CCCCNC(=O)CC[C@H](NC(=O)CCCCCCCCCCCCCCCCC(=O)O)C(=O)O)C(=O)N[C@@H](CC(N)=O)C(=O)N[C@@H]([C@@H](C)O)C(=O)N[C@@H](C)C(=O)N[C@@H]([C@@H](C)O)C(=O)N1)[C@@H](C)O)C(=O)N[C@@H](CC(C)C)C(=O)N1CCC[C@H]1C(=O)N1CCC[C@H]1C(=O)N[C@H](C(=O)N[C@@H](CCC(=O)O)C(=O)N[C@H](C(=O)NCC(=O)N[C@@H](CO)C(=O)N[C@@H](CC(N)=O)C(=O)N[C@H](C(=O)N[C@@H](Cc1ccc(O)cc1)C(N)=O)[C@@H](C)O)C(C)C)[C@@H](C)O) [Peptide 43 (SEQ ID NO: 43)] |
